Results as given in patent publication US20210347873A1 (SHANGHAI PHARMAEXPLORER, published 2021).
Residue numbers refer to the chain shown, from its start.

B1: 111D10D6G3 (antibody, V domains shown)
VH: QVQLQQPGAELVKPGASVKMSCKASGYTFTRHWITWVKQRPGQGLEWIGDIFPGSGSINYNEKFKSEATLTVEKSSSTAYMQLSSLTSEDSAVYYCARGDVDVWGTGTTVTVSS
VL: DIQMTQSPSSLSASLGERVSLTCRASQEIRGYLSWLQQKPNGTIKRLIYAASTLDSGVPKRFSATRSGSDFSLTISSLESEDFADYYCLQYASYPFTFGSGTKLEIK
notes: Mouse hybridoma antibody purified on Protein G
B2: L9G7 (antibody, human IgG1, V domains shown)
VH: QIQLVQSGAEVKKPGASVKVSCKASGYTFTSYGISWVRQAPGQGLEWMGWISAYNGNTNYAQKLQGRVTMTTDTSTSTAYMELRSLRSDDTAVYYCARTYYDILTGYYYYGMDVWGQGTTVTVSS
VL: EIVLTQSPGTLSLSPGERATLSCRTSQSVDTYLAWYQQKPGQAPRLLIYDASNRATGIPARFSGSGSGTDFTLTISSLEPEDFAVYYCQQRSNWPLTFGGGTKVEIK
B3: L1D12 (antibody, human IgG1, V domains shown)
VH: QVQLVQSGGGLVQPGGSLRLSCAASGFTVSSNYMSWVRQAPGKGLEWVSVIYSGGSTYYADSVKGRFTISRDNSKNTLYLQMNSLRAEDTAVYYCARGFHDILTGYGMDVWGQGTTVTVSS
VL: SSELTQDPAVSVALGQTVRITCQGDSLRNYYAGWYQQKPGQAPVLVIYGKNNRPSGIPDRFSGSSSGNTASLTITGTQAEDEADYYCSSRDNSGTHLVEFGGGTKLTVL
notes: also called LID12
B4: 97A3C2H4 (antibody, V domains shown)
VH: EVKLVESGGGLVQPGGSLKLSCAASGFTFSTYTMSWVRQTPEKRLEWVAYISYGGGSTSYPDTVKGRFTISRDNAKNTLYLQMSSLKSEDTAIYYCTRHVTVVENSMDYWGQGTSVTVSS
VL: DILLTQSPDILSVSPGERVSFSCRASQSIGTSIHWYQQRTNGSPRLLIKYVSESFSGTPSRFSGSGSGTAFTLTINSVESEDIADYYCQQTHSWPWTFGGGTKLEIK
notes: as for B1
B5: 2-1G11 (antibody, V domains shown)
VH: EVQLVESRGGVVQPGRSLRLSCAASGFTFSSYGMHWVRQAPGKGLEWVAVISYDGSNKYYADSVKGRFTISRDNSKNTLYLQMNSLRAEDAAVYYCARDRVDILTGYSIYGMDVWGQGTTVTVSS
VL: B2 VL with L4M, G9A, T25A, D30S, T31S, N53K
notes: From a human naive scFv phage library; also called human BLyS antibody 2-1G11
B6: L9G7 (antibody, V domains shown)
VH: B2 VH
VL: B2 VL
notes: From a human naive scFv phage library; also called human BLyS antibody L9G7
B7: L1D12 (antibody, V domains shown)
VH: B3 VH
VL: B3 VL
notes: From a human naive scFv phage library; also called human BLyS antibody L1D12; LID12

Biological target: T1, biotinylated hBLyS-ECD (human, UniProt Q9Y275 134-285, biotinylated with Biotin-X-X-NHS (molar ratio 7:1), sites not stated)
T1 construct: The hBLyS-ECD of Embodiment 1 after biotinylation (Embodiment 2); also called biotinylated immunogen; BLyS protein; not shown: His tag of the pCPC vector
Assay: ELISA, biotinylated hBLyS-ECD captured on streptavidin; antibody 0.00427 nM
Protocol: (§1) Streptavidin was first diluted to a final concentration of 1.0 μg/mL with PBS, and then 50 μL of diluted streptavidin per well was aliquoted into 96-well ELISA plate, which was subsequently sealed with plastic film and incubated at 4° C. overnight. On the next day the plate was washed four times with the plate washing buffer [PBS buffer containing 0.05% (v/v) Tween20] and added with the blocking solution [PBS buffer containing 0.05% (v/v) Tween20 and 1% (w/w) BSA] and blocked for 2 hours at 37° C. The blocking solution was removed, the biotinylated hBLyS-ECD prepared in Embodiment 2 was diluted with PBS to a final concentration of 50 ng/mL and then aliquoted into the 96-well ELISA plate at 50 μL per well and incubated for 1 hour at 37° C. After rinsing the plate four times with the plate washing buffer [PBS buffer containing 0.05% (v/v) Tween20], 100 μl of the purified lead antibody harvested in Embodiment 1 and 2 was pipetted into each well. After incubation for 1 hour at 37° C., the plate was rinsed four times with the plate washing buffer [PBS buffer containing 0.05% (v/v) Tween20]. HRP-labeled (horseradish peroxidase) secondary antibody (purchased from Sigma) was added in and incubated at 37° C. for 1 hour. The plate was then rinsed four times with the plate washing buffer [PBS buffer containing 0.05% (v/v) Tween20]. 100 μL of TMB substrate was aliquoted into each well and after incubation for 5 minutes at room temperature, 100 μL of stop solution (1.0 N HCl) was aliquoted into each well. A₄₅₀ₙₘ values were read via an ELISA plate reader (SpectraMax M5e purchased from Molecular Devices) and the results were shown in FIGS. 5A-5B and Table 10.

T1 sequence (Q9Y275 134-285): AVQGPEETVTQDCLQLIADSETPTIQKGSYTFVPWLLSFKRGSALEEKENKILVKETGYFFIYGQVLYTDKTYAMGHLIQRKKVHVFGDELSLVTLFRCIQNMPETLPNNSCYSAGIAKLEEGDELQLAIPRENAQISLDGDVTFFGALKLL

Row | Binder | OD450 nm
1 | B1 | 0.082
2 | B2 | 0.0853
3 | B3 | 0.135
4 | B4 | 0.105

Biological target: T2, biotinylated hBLyS-ECD (human, UniProt Q9Y275 134-285, biotinylated with Biotin-X-X-NHS (molar ratio 7:1); sites not stated)
T2 construct: also called biotinylated immunogen; BLyS protein
Assay: competitive ELISA on biotinylated hBLyS-ECD; competitor L1D12
Protocol: The purified human BLyS antibody and hybridoma antibody were subjected to competitive enzyme-linked immunosorbent assay and the epitopes binding by different antibodies were analyzed.
Purified BLyS antibody was first diluted to a final concentration of 1.0 μg/mL with PBS, then aliquoted into a 96-well ELISA plate at 50 μL per well, and the plate was subsequently sealed with plastic film and incubated at 4° C. overnight. On the next day the plate was rinsed four times with the plate washing buffer [PBS buffer containing 0.05% (v/v) Tween20] and mixed with blocking solution [PBS buffer containing 0.05% (v/v) Tween20 and 1% (w/w) BSA], and then blocked at 37° C. for 1 hour. The blocking solution was removed, and the competitive antibody and IgG control were diluted to a final concentration of 40 μg/mL with PBS and then aliquoted into the 96-well ELISA plate at 50 μL per well. The biotinylated hBLyS-ECD was then diluted with PBS to a final concentration of 2 ng/mL and pipetted into the 96-well ELISA plate at 50 μL per well. The final concentration of competitive antibody and hBLyS-ECD was 20 μg/mL and 1 ng/mL, respectively. After incubation at 37° C. for 1 hour, the plate was rinsed four times with the plate washing buffer [PBS buffer containing 0.05% (v/v) Tween20]. 100 μL per well of HRP-labeled (horseradish peroxidase) streptavidin (purchased from Sigma) was added into the plate and the plate was incubated at 37° C. for 1 hour. The plate was then washed four times with the plate washing buffer [PBS buffer containing 0.05% (v/v) Tween20]. 100 μL of TMB substrate was aliquoted into each well and after incubation at room temperature for 5 minutes, 100 μL of stop solution (1.0 N HCl) was aliquoted into each well. A₄₅₀ₙₘ values were read by an ELISA plate reader (SpectraMax M5e, purchased from Molecular Device) and the results were shown in Tables 18A-18B. […] The data shown in the table is the inhibitory rate (%) of the binding level of the original antibody to hBLyS-ECD after addition of the competitive antibody.

Row | Binder | inhibitory rate (%)
5 | B5 | 91
6 | B6 | 97
7 | B7 | 94

Biological target: T1, biotinylated hBLyS-ECD
Assay: ELISA, biotinylated hBLyS-ECD captured on streptavidin; antibody 66.7 nM
Protocol: as §1

Row | Binder | OD450 nm
8 | B1 | 1.94
9 | B2 | 1.81
10 | B3 | 1.75
11 | B4 | 2.98

Biological target: T1, biotinylated hBLyS-ECD
Assay: ELISA, biotinylated hBLyS-ECD captured on streptavidin; antibody 2.67 nM
Protocol: as §1

Row | Binder | OD450 nm
12 | B1 | 1.78
13 | B2 | 1.71
14 | B3 | 1.65
15 | B4 | 2.75

Biological target: T1, biotinylated hBLyS-ECD
Assay: ELISA, biotinylated hBLyS-ECD captured on streptavidin; antibody 0 nM (blank)
Protocol: as §1

Row | Binder | OD450 nm
16 | B1 | 0.0617
17 | B2 | 0.071
18 | B3 | 0.11
19 | B4 | 0.0603

Biological target: T1, biotinylated hBLyS-ECD
Assay: ELISA, biotinylated hBLyS-ECD captured on streptavidin; antibody 0.107 nM
Protocol: as §1

Row | Binder | OD450 nm
20 | B1 | 0.613
21 | B2 | 0.528
22 | B3 | 0.678
23 | B4 | 0.899
